The values below are quoted from earlier work in paper PMC6596353.

The target in the series is ST2 (Homo sapiens) (UniProt Q01638).
Sequence of UniProt Q01638 (Q01638 19-556): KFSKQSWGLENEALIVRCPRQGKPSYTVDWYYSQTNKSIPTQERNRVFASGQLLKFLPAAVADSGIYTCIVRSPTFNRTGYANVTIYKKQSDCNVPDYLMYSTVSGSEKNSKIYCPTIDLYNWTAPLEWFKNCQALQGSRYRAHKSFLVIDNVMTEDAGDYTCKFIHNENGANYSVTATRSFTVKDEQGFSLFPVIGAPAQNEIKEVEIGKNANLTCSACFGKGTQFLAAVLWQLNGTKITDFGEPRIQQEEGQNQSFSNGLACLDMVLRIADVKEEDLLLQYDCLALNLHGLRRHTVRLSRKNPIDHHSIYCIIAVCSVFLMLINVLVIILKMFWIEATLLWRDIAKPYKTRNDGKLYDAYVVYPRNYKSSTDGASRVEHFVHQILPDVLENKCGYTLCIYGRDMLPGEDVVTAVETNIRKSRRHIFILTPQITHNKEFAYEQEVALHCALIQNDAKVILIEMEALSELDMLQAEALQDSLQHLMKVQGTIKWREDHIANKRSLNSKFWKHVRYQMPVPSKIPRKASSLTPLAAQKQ

As to IL-33 (from UniProt O95760), the equilibrium dissociation constant (Kd) is 0.45 nM.
